Source: patent publication US20220403048A1, “BINDING MOLECULES TO ARGINASE II [ARG2]” (Cancer Research Technology Limited, priority 2019, published 2022)

T1: human ARG1 (Homo sapiens, UniProt P05089)
T1 construct: Avi tag (N); His10 (after a GGG linker) (C); made in house; host or cells: E. coli BL21 (DE3)
T1 sequence (P05089 with tags, fused parts or gaps): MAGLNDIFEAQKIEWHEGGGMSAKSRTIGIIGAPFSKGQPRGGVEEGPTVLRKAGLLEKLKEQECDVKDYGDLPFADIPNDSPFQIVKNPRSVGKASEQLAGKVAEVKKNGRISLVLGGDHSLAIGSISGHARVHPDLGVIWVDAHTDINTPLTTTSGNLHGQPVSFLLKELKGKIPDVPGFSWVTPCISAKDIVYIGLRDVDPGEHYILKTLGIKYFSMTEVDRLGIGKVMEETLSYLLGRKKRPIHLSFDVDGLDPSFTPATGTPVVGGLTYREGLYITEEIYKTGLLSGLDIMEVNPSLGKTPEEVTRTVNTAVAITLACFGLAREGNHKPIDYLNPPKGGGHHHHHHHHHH

T2: human ARG2 (Homo sapiens, UniProt P78540, E275H/R327K)
T2 construct: His10 (after a GGG linker) (C); made in house; host or cells: E. coli BL21 (DE3)
T2 sequence (P78540 23-354 E275H/R327K): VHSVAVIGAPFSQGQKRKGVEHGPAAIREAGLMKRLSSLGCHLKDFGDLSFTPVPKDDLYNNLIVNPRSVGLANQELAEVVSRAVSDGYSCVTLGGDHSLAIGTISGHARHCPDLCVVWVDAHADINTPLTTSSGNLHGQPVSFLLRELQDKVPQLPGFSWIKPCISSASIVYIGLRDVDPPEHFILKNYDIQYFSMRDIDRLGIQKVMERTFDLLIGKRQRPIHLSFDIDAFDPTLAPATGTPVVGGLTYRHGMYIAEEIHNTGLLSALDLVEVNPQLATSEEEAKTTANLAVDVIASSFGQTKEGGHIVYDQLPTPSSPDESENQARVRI


Legend:
[1] = target: T1, human ARG1; test: Bio-Layer Interferometry (OctetRED) binding, human ARG1; conditions: Fab analyte up to 120 nM, screening assay on anti-His surface
Protocol: (§1) The affinity of binding between the Fab of C0020187 and human ARG2, cynomolgus ARG2 and human ARG1 was estimated using assays in which the biotinylated ARG antigen was captured on a streptavidin sensor tip. A fresh sensor tip was used for each measurement and no regeneration was used. A series of dilutions of the C0020187 Fab (3.25-240 nM) were individually placed in contact with the ligand surface for a sufficient amount of time to observe sensorgrams that could be fitted to an appropriate binding model with confidence (typically 5 minutes), followed by an appropriate length of dissociation time (typically 10 minutes). Blank reference (0 nM Fab) data were subtracted from each dataset to reduce the impact of any buffer artefacts or non-specific binding effects. An appropriate binding model was then fitted simultaneously to the data from each analyte titration using the Octet Evaluation software.
(§2) The binding of affinity-matured antibodies to human ARG1 was also tested on the OctetRED system using a screening assay which stably captures […] as the ligand on an anti-His surface. The Fabs were typically tested in an analyte range of 1.8 to 120 nM, with an association time of 5 minutes and a dissociation time of 10 minutes. Sensors were regenerated using 10 mM glycine pH 1.5 after each cycle.
as §2, with “Binding” for “The binding”, “the second-generation” for “affinity-matured”, “ARG” for “ARG1”, “were” for “were typically”, “as” for “in an”, “up” for “range of 1.8”

[2] = target: T2, human ARG2; test: Bio-Layer Interferometry (OctetRED) binding kinetics, human ARG2
Description: (§3) The OctetRED (Pall ForteBio) instrument was used to assess the kinetic parameters of the interactions between C0020187 and recombinantly produced human ARG2, cynomolgus ARG2 and human ARG1. The Octet biosensor uses an optical analytical technique that analyses the interference pattern of white light reflected from two surfaces: a layer of immobilised protein on the sensor tip, and an internal reference layer. Any changes in binding at the biosensor tip result in a shift in interference pattern, which can be measured in real time. Molecules associating with or dissociating from ligands at the biosensor tip shift the interference pattern and generate a response on the Octet system which is recorded by the acquisition software.
(§4) Typically, a defined concentration of the analyte species is brought into contact with the coupled ligand and any binding is detected as an increased in signal (association phase). This is followed by a period of buffer rinse, during which dissociation of the analyte species from the surface immobilised ligand can be observed as a decrease in signal (dissociation phase). Repetition of this with a range of analyte concentrations provides data for the analysis of binding kinetics.
(§5) An Octet Kinetics Buffer (PBS containing 0.01% BSA and 0.002% Tween20) is typically used as the diluent buffer for the analyte samples and as the flow buffer during the dissociation phase. The experimental data is recorded over time as shift in interference pattern (nm) over time, which is directly proportional to the optical thickness at the biosensor tip, which in turn is an approximate measure of the mass of analyte bound. The proprietary Octet Data Analysis software package can then be used to process data and fit binding models to the data sets. Returned association (ka, M^−1 s^−1) and dissociation (kd, s^−1) rate constants allow calculation of dissociation (KD, M) affinity constants.
as §1
(§6) Example results for C0020187 are shown in Table 9, showing the association rate constants (ka), dissociation rate constants (kd) and dissociation constants (KD). These parameters were derived from a 1:1 binding fit to the data.
(§7) The affinities of the affinity-matured antibodies to human ARG2 were measured on the OctetRED system as described in section 1.15 using the streptavidin capture method. Typically, an analyte titration range of 1.8 to 120 nM was used.
The affinities of the second-generation antibodies to human ARG2 were measured on the OctetRED system. A screening assay which stably captures His-tagged ARG2 as the ligand on an anti-His surface was utilised to screen the second-generation candidates as Fabs at an analyte range of 1.8 to 120 nM, with an association time of 5 minutes and a dissociation time of 10 minutes. Sensors were regenerated using 10 mM glycine pH 1.5 after each cycle. Based on this assay, six candidates with estimated affinities in the sub-nanomolar range were identified, and they were further profiled using an extended assay which is more suitable for antibodies of high affinities. […]

[3] = test system: cynomolgus ARG2; test: Bio-Layer Interferometry (OctetRED) binding kinetics, cynomolgus ARG2; conditions: cyno ARG2 ligand
cynomolgus ARG2, sequence (as listed by the source): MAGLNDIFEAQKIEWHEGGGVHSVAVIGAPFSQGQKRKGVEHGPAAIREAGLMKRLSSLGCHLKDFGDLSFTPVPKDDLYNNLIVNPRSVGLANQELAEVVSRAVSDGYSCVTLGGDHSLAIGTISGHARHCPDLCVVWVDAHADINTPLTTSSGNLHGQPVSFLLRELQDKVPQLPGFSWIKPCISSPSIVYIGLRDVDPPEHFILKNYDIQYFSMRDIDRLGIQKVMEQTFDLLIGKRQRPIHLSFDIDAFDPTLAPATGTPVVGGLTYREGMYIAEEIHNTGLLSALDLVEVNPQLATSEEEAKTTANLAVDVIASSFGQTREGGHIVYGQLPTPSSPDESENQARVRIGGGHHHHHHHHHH
Description: as §3, §4, §5, §1, §6, §7
The affinities of some of these antibodies to cynomolgus ARG2 were determined using the same assay, and the derived kinetic parameters are shown in Table 21.

[4] = second-generation Fab, extended assay: association 10 min, dissociation 40 min, 0.47 to 30 nM, streptavidin surface with bio-ARG2
[5] = second-generation Fab, same extended assay
[6] = Fab as analyte, streptavidin capture, analyte 1.8 to 120 nM, affinity-matured antibodies
[7] = Fab as analyte, affinity-matured antibodies

Results, binding to human ARG1 (BLI) [1] | ka [2, 4] | kd [2, 4] | ka [3, 5] | kd [3, 5] | ka [2, 6] | kd [2, 6] | ka [3, 7] | kd [3, 7] | Molecule
No binding observed | 262000 M⁻¹ s⁻¹ | 4.54e-05 s⁻¹ | 429000 M⁻¹ s⁻¹ | 4.64e-05 s⁻¹ |  |  |  |  | C0021158 IgG: anti-ARG2 antibody, VH SEQ ID NO: 282, VL SEQ ID NO: 287; IgG and Fab versions carry these sequences (antibody, listed as Homo sapiens, V domains shown, C0021158 IgG) VH: EVQLLESGGGLVQPGGSLRLSCAASGFTFRYEVAAWVRQAPGKGLEWVSAISGPIPKGYYADSVKGRFTISRDNSKNTLYLQMNSLRAEDTAVYYCARLRADLGLYMDLWGRGTLVTVSS VL: QSVLTQPPSVSAAPGQKVTISCSGSSSNIGNHYVSWYQQLPGTAPKLLIYDNSERTAGVPDRFSGSKSGTSATLGITGLQTGDEADYYCGTWDELTSNLVFGGGTKLTVL
No binding observed |  |  |  |  | 219000 M⁻¹ s⁻¹ | 0.000449 s⁻¹ | 328000 M⁻¹ s⁻¹ | 0.000549 s⁻¹ | C0021133: anti-ARG2 antibody, VH SEQ ID NO: 192, VL SEQ ID NO: 197 (antibody, listed as Homo sapiens, V domains shown, C0021133) VH: EVQLLESGGGLVQPGGSLRLSCAASGFTFRYDHHVWVRQAPGKGLEWVSAISGSGGSTYYADSVKGRFTISRDNSKNTLYLQMNSLRAEDTAVYYCARLRADLGLYMDLWGRGTLVTVSS VL: QSVLTQPPSVSAAPGQKVTVSCSGSSSNIGNHYVSWYQQLPGTAPKLLIYDTTVLSSGIPDRFSGSKSGTSATLGITGLQTGDEADYYCGTWDELTSNLVFGGGTKLTVL
No binding observed |  |  |  |  | 412000 M⁻¹ s⁻¹ | 0.00112 s⁻¹ | 706000 M⁻¹ s⁻¹ | 0.00117 s⁻¹ | C0021022: anti-ARG2 antibody, VH SEQ ID NO: 42, VL SEQ ID NO: 47 (antibody, listed as Homo sapiens, V domains shown, C0021022) VH: EVQLLESGGGLVQPGGSLRLSCAASGFTFSSYAMSWVRQAPGKGPEWVSAISGFSPYYADSVKGRFTISRDNSKNTLYLQMNSLRAEDTAVYYCARLRADLGLYMDLWGRGTLVTVSS VL: QSVLTQPPSVSAAPGQKVTISCSGSSSNIGNHYVSWYQQLPGTAPKLLIYDNSERPSGIPDRFSGSKSGTSATLGITGLQTGDEADYYCGTWDSSLSALVFGGGTKLTVL
No binding observed |  |  |  |  | 198000 M⁻¹ s⁻¹ | 0.000871 s⁻¹ | 275000 M⁻¹ s⁻¹ | 0.000724 s⁻¹ | C0021139: anti-ARG2 antibody, VH SEQ ID NO: 212, VL SEQ ID NO: 217 (antibody, listed as Homo sapiens, V domains shown, C0021139) VH: EVQLLESGGGLVQPGGSLRLSCAASGFTFQYDYQVWVRQAPGKGLEWVSAISGSGGSTYYADSVKGRFTISRDNSKNTLYLQMNSLRAEDTAVYYCARLRADLGLYMDLWGRGTLVTVSS VL: QSVLTQPPSVSAAPGQKVTISCSGSSSNIGNHYVSWYQQLPGTAPKLLIYDNSERTSGIPDRFSGSKSGTSATLGITGLQTGDEADYYCGTWDELTSNLVFGGGTKLTVL
No binding observed |  |  |  |  | 271000 M⁻¹ s⁻¹ | 0.000351 s⁻¹ | 310000 M⁻¹ s⁻¹ | 0.000296 s⁻¹ | C0021061: anti-ARG2 antibody, first generation lead, VH SEQ ID NO: 62, VL SEQ ID NO: 67 (antibody, listed as Homo sapiens, V domains shown, C0021061) VH: EVQLLESGGGLVQPGGSLRLSCAASGFTFSSYAMSWVRQAPGKGLEWVSAKPTDAGSTYYADSVKGRFTISRDNSKNTLYLQMNSLRAEDTAVYYCARLRADLGLYMDLWGRGTLVTVSS VL: QSVLTQPPSVSAAPGQKVTISCSGSSSNIGNHYVSWYQQLPGTAPKLLIYNTVYPKSGIPDRFSGSKSGTSATLGITGLQTGDEADYYCGTWDSSLSALVFGGGTKLTVL
No binding observed |  |  |  |  | 280000 M⁻¹ s⁻¹ | 0.000755 s⁻¹ | 354000 M⁻¹ s⁻¹ | 0.000726 s⁻¹ | C0021092: anti-ARG2 antibody, VH SEQ ID NO: 92, VL SEQ ID NO: 97 (antibody, listed as Homo sapiens, V domains shown, C0021092) VH: EVQLLESGGGLVQPGGSLRLSCAASGFTFSRYAMSWVRQAPGKGLEWVSAHTHSPGSTYYADSVKGRFTISRDNSKNTLYLQMNSLRAEDTAVYYCARLRADLGLYMDLWGRGTLVTVSS VL: QSVLTQPPSVSAAPGQKVTISCSGSSSNIGNHYVSWYQQLPGTAPKLLIYNSVARPSGIPDRFSGSKSGTSATLGITGLQTGDEADYYCGTWDSSLSALVFGGGTKLTVL
No binding observed |  |  |  |  | 409000 M⁻¹ s⁻¹ | 0.000665 s⁻¹ | 617000 M⁻¹ s⁻¹ | 0.000782 s⁻¹ | C0021065: anti-ARG2 antibody, VH SEQ ID NO: 72, VL SEQ ID NO: 77 (antibody, listed as Homo sapiens, V domains shown, C0021065) VH: EVQLLESGGGLVQPGGSLRLSCAASGFTFSSYAMSWVRQAPGKGPEWVSAISGFSPYYADSVKGRFTISRDNSRNTLYLQMNSLRAEDTAVYYCARLRADLGLYMDLWGRGTLVTVSS VL: QSVLTQPPSVSAAPGQKVTISCSGSSSNIGNHYVSWYQQLPGTAPKLLIYDTDHMASGIPDRFSGSKSGTSATLGITGLQTGDEADYYCGTWDSSLSALVFGGGTKLTVL
